Data published in patent publication US11884710B2, “Peptide compounds and methods of use in wound healing” (priority 2013, dated 2024).

Key:
PKCδ [1] = experiment: Immunohistochemistry for PKCδ in corneal wounds in vivo; set-up: species or system mouse; conditions: rCAP37 250 ng/ml; sections at 6 hours
Procedure: Mice corneas were wounded using the AlgerBrush II and treated at 0 and 16 hours with vehicle (normal saline; (A-C)) or rCAP37 (250 ng/ml; (D-F)). Whole eye globes were enucleated at 6 hours (A, B, D, E), 16 hours (C, F), and 48 hours (H) post-wounding, and sections were stained for PKCδ. Representative images show constitutive staining for PKCδ in unwounded corneas (G). […] Pronounced staining for PKCδ was seen along the leading wound edge (↓) in CAP37-treated corneas at 6 hours (D, E) and 16 hours (F). […] Scale bars, 100 μm.
Immunohistochemistry: Whole mouse eyes were collected, fixed, embedded, and cut as previously described. Antigen retrieval was performed by treating sections with Rodent Decloaker (BioCare Medical, Concord, Calif.) and steaming them for 20 minutes before cooling with deionized water for 20 minutes. Sections were blocked for 30 minutes in Rodent Blocker M (BioCare Medical, Concord, Calif.), washed three times for 5 minutes per wash in deionized water, and blocked in peroxide block (Cell Marque, Rocklin, Calif.) for 10 minutes. Sections were then washed three times for 5 minutes in deionized water and incubated overnight at 4° C. with rabbit anti-PKCδ (4 μg/ml; Santa Cruz Biotechnology, Inc. Santa Cruz, Calif.). Sections incubated with rabbit IgG (Cell Signaling Technology, Danvers, Mass.) overnight at 4° C. served as controls for nonspecific staining. […]

HCEC monolayers = experiment: In vitro scratch assay of HCEC monolayers; format: cell-based, human
Procedure: (A) HCECs were grown to confluency and scratched using a 10 μl pipette tip. Scratched HCEC monolayers were treated with HB-EGF (250 ng/ml) or rCAP37 (25-2000 ng/ml), or were left untreated in basal Keratinocyte Serum Free Medium (KSFM). Wound closure was monitored at 0, 18, 24, and 48 hours utilizing a camera-equipped inverted microscope. The histogram represents data acquired at 48 hours, and the values are the mean±SEM of the percentage of wound closure. The data are representative of at least 4 independent experiments. The percentage of wound closure in treated monolayers was compared to untreated controls by one-way analysis of variance (ANOVA) followed by Dunnett's multiple comparison test, **P<0.01, *P<0.05. (B) Representative images of scratched monolayers treated with buffer control, HB-EGF, and rCAP37 (at 25, 100, and 250 ng/ml) are shown for each time point. Images were taken at 20× objective.
In vitro model of wound healing: An in vitro scratch assay was used in order to determine the ability of rCAP37 to facilitate corneal wound healing. Human corneal epithelial cells were cultured as described above until they reached a confluent monolayer. Each monolayer was scratched using a 10 μl pipette tip to create two perpendicular lines. Monolayers were treated with heparin binding-epidermal growth factor (HB-EGF, 250 ng/ml; Becton Dickinson), rCAP37 (25-2000 ng/ml), or basal KSFM (Gibco). Wound closure was monitored at 0, 18, 24, and 48 hours utilizing a camera-equipped inverted microscope (TE2000-E; Nikon, Melville, N.Y.). Time-lapse images of in vitro wound closure were obtained using a camera-equipped inverted microscope (TE2000-E; Nikon) from […]. HCEC monolayers were treated with HB-EGF, rCAP37, and basal KSFM as described above. The width of each scratch was quantitated using ImageJ software (US National Institutes of Health, Bethesda, Md.). Results are presented as the percentage of wound closure.

PKCδ [2] = experiment: Immunofluorescence for PKCδ in HCEC monolayers; format: cell-based, human; conditions: CAP37 250 and 500 ng/ml; 15 minutes; scratched and non-scratched monolayers
Procedure: HCEC monolayers were grown to confluency and were scratched with a 10 μl pipette tip or left unscratched, and then the monolayers were treated for 15 minutes with (A-B) buffer, (C-D) PMA (1 μM), (E-F) 250 ng/ml CAP37, and (G-J) 500 ng/ml CAP37. Cells were stained for PKCδ (250 ng/ml; (A-H)), and PKCα (1 μg/ml; (I-J)) and detected using immunofluorescence (4 μg/ml, ALEXA FLUOR® 488 dye (Life Technologies Corp., Grand Island, N.Y.)). […] Scratched monolayers that were treated for 18 hours with CAP37 (250 ng/ml; (L)) or left untreated (K) were stained for PKCδ. […] Scale bars, 20 μm.
Immunofluorescence: HCECs and primary HCECs were cultured on Lab-Tek® II glass chamber slides (Nunc, Rochester, N.Y.) and starved overnight in basal media. For wounding studies, monolayers were scratched with a 10 μl pipette tip or left unscratched and treated with 1 μM phorbol 12-myristate 13-acetate (PMA, Sigma-Aldrich), rCAP37 (25-500 ng/ml), or basal KSFM (Gibco) for 15 minutes. After treatment, the cells were fixed in 4% (v/v) formaldehyde solution (Thermo, Rockford, Ill.) in PBS (Gibco) for 20 minutes at room temperature followed by permeabilization in 0.5% TRITON™-X 100 (Mallinckrodt, St. Louis, Mo.) in PBS for 10 minutes. Remaining formaldehyde was quenched with 0.05 M ammonium chloride (NH4Cl, Sigma-Aldrich, St. Louis, Mo.) in PBS for 10 minutes. […]

B1: CAP37: cationic antimicrobial protein of Mr 37 kDa; recombinant CAP37 produced in human embryonic kidney (HEK) 293 cells (protein)
chain: IVGGRKARPRQFPFLASIQNQGRHFCGGALIHARFVMTAASCFQSQNPGVSTVVLGAYDLRRRERQSRQTFSISSMSENGYDPQQNLNDLMLLQLDREANLTSSVTILPLPLQNATVEAGTRCQVAGWGSQRSGGRLSRFPRFVNVTVTPEDQCRPNNVCTGVLTRRGGICNGDGGTPLVCEGLAHGVASFSLGPCGRGPDFFTRVALFRDWIDGVLNNPGP
PKCδ [1]
  PKCδ staining of corneal sections, in words: strong staining for PKCδ
HCEC monolayers; CAP37 250 ng/ml, at 18 hours
  percentage wound closure: ~71%
HCEC monolayers; CAP37 500 ng/ml
  percentage wound closure: approximately 62%
HCEC monolayers; HB-EGF 250 ng/ml, CAP37 250 ng/ml
  time to complete closure of scratch wounds: 24 to 48 h
PKCδ [2]
  PKCδ staining, in words: dose-dependent increase in PKCδ staining
